Measurements as given in the nanobody polyreactivity screen of Harvey et al. (2022).

Assay: yeast display, Sf9 membrane polyspecificity reagent, FACS + sequencing; frameworks hold sequencing errors
In short: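 Galactose induction of a Saccharomyces cerevisiae BJ5465 synthetic nanobody display library ran 36–48 hours. The cells were then stained for 1 hour at 4 °C with 10% biotinylated, detergent-solubilized Sf9 membrane reagent, pulled down on streptavidin microbeads and FACS-sorted into low and high (top ~1%) gates on expression and reagent-binding fluorescence. Labels for polyreactivity follow the gate of origin.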

| Sequence | polyreactivity (PSR sort gate) |
| --- | --- |
| QVQLVESAGGLVQAGGSLRLSCAASGRTFTDYVMGWYRQAPGKESELVAAITSGGGTTYYADSVKGRFTISRDNAKKTVYLQMNSLKPEDTAVYYGNAVSYRRSRYWGYVYWGQGTQVTVSS | high polyreactivity |
| QVQLVESAGGLVQAGGSLRLSCAASGRTIDSYTMGWYRQAPGKERELVASISKRGGSTYYADSVKERFTISRDNAKNTVYLQMNSLKPQDTAVYYCATKSYYVSYYRYRVDYWGQVTQVTVSS | high polyreactivity |
| QVQLVESAGGLVQAGGSLRLSCAASGSIFDDYAMGWYRQAPGKERELVAAISDSGGSTSYADSVKGRFTISRDNAKNTVYLQMNSLKPEDTAVYYCNADRDDDYDYWGQGTQVTLSS | low polyreactivity |
| QVQLVESAGGLVQAGGSLRLSCAASGSIFERNVIGWYRRAPGKERELVPRISTSGGSTTYYADSVKGRFTISRDTAKNTVYLQMNSLKPEDTAVYYCAAGRGYWWWYGYDYWGQGTQVTVSS | low polyreactivity |
| QVQLVESAGGLVQAGGSLRLSCAASGSIFGPYAMGWYRQAPGKERELVAVISSGDSTNYADSVKGRFTISRDNAKNTVYLQMNSLKPEDTAVYYCATRYLLYRGGHTLFYHFDYWGLGTQVTVSS | low polyreactivity |
| QVQLVESAGGLVQAGGSLRLSCAASGSIFGSYAMGGYRQAPGKERELVAAIYSSGGSTYYADSVKGRFTISRDNAKNTVYLQMNSLKPEDTAVYYCNKYVRYGDGYWGQGTQVTVSS | high polyreactivity |
| QVQLVESAGGLVQAGGSLRLSCAASGSIIYYNAMGWYRQAPGKERELVAAITGSGGSTYYADSVKGRFTISRDNAKNTVYLQMNSLKPEDTAVYYCAADYSLYGWWFRNDYWGQGTQVTVSS | low polyreactivity |
| QVQLVESAGGLVQAGGSLRLSCAASGSILPSNAMGWYRQATGKERELVAGLSERGSSTYYADSVKGRFTISRDNAKNTVYLQMNSLKPEDTAVYYCAADDVGRYWSSTHNWARGEYWGQGTHVTVSS | low polyreactivity |
| QVQLVESAGGLVQAGGSLRLSCAASGSNFKYYAMGWYRQAPGKERELVAAINGSGGSTYYADSVKGRFTISRDNAKNTVYLQMNSLKPEDTAVYYCARASDYNKVSKSQRMDYWGQGTQVTVSS | high polyreactivity |
| QVQLVESAGGLVQAGGSLRLSCAASGSTFAFYAMGWYRQAPGKERELVAVISLRGSRTYYADSVKGRFTISRDNAKNTVYLQMSSLKPEDTAVYYCATTGYRLRQATRYDYWGQGTQVTVSS | high polyreactivity |
| QVQLVESAGGLVQAGGSLRLSCAASGSTFDYYAMGWYRQAPGKERELVAAISRTGGRTYYADSVKGRFTISRDNAKNTVYLQMNSLKPEDTAVYYCATRNGRQYSVSYRYYYWGQGTQVTVSS | low polyreactivity |
| QVQLVESAGGLVQAGGSLRLSCAASGSTFTYYAMGWSRQAPGKESELVAAISSGASTYYADSVKGRFTFSRDNAKNTVYLQMNSLKPEDTAVYYCNAKKSIRPYRTGMDYWGQGTQVTVSS | high polyreactivity |
| QVQLVESAGGLVQAGGSLRLSCAASGSTFVWYAMGGYRQAPGKERELVDAINFGGTTYYADSVKGRFRISRYNAKNTVYLQLNSLKPEDTAVYYCATEYDYGSWFPDGWGIFDYWGQGTQVTVSS | low polyreactivity |
| QVQLVESAGGLVQAGGSLRLSCAASGYIYGYYVMGWNRQAPGKERELVAAISGRGGRTYYADSVKGRFTISRDNAKNTVYLQMNSLKPEDTAVYYCAAADLPGTMYYWGQGTQVTVSS | high polyreactivity |
| QVQLVESAGGLVQAGGSLRLSCAASRSIYGYYAMGWYRQEPGKERELVAAIRRSGGSTYYADSVKGRFTISRDNAKNTVYLHMNSLKPEDTAVYYCAARVSPYRGFYYWGLGTQVTVSS | high polyreactivity |
| QVQLVESAGGLVQAGGSLRLSCAATGFIFWGNAMGWDRQAPGKERELVAGIRSLGGTTSYADSVKGRFTISRDNAKNTVYLQMNSLKPEDTAVYYCAAKYSYYTYAGDGGLFSWSYGYWGQGTQVTVSS | low polyreactivity |

| Sequence | polyreactivity (PSR sort gate) |
| --- | --- |
| QVQLVESAGGLVQAGGSLRLSCAPSGRIFPVNSMGSYRQAPGKERELVATMSSGDITNYADSVKGRFTISRDNATITVYLQMNCLKPEDNAVYYCARDSKRLARYYYWGQGTQVTVSS | low polyreactivity |
| QVQLVESAGGLVQAGGSLRLSCDASGLTYSYYAMGWYIQAPGKERELVAAISWSGGSTYYADSVNGRFTISRDNAKNTVYLQMNSLKPEDTAVYYCAKYPNRHYWYDYWGQGTQVTVSS | low polyreactivity |
| QVQLVESAGGLVQAGGSLRLSCSAYGIIFSRYAMGWYRQAHGKERELVAAITSGGSTSYADSVKGRFTISRDNAKNTVYLQMNSLKPADTAVYYCAAQFFYRKSGTWAVYRYNYWGQGTQVTVSS | high polyreactivity |
| QVQLVESAGGLVQAGGSLRLSSAASGLIFPLYEMGWYRQAPGKERELVAAINWRGGSTYYADSVKGRFTISRDNAKNTVYLQMNSLKPEDTAVYYCAAGYLHRDSYIYDYWGQGTQVTVSS | low polyreactivity |
| QVQLVESAGGLVQAGGSLRLSSGASGSTFNTYAMGWYRQAPGKERELVAAITYNGGSTYYADSVKGRFTISRDNAKNTVYLQMNSLKPEDTAVYYCAAPRSRSRTSRFEYWGQGTQVTVSS | high polyreactivity |
| QVQLVESAGGLVQAGGSLRLTCAASGRTFHHNAMGWYRQPPGKERELFAAITSVGNTYADSVKGRFTISRDNAKNTVYLLMNSMKPEDTAVYYCNARIYDSRFYWSPATSRFEYWGQGTQVTLSS | low polyreactivity |
| QVQLVESAGGLVQAGGSLSLSCAASGSIFIWYAMGWDRQAPGKERELVAAIRSGGSTYYADSVKGRFTISRDNAKNTVYLQMNSLKPEYTAVYYCAKVLTWRGYRYNYWGQGTQVTVSS | low polyreactivity |
| QVQLVESAGGLVQAGGSLSLSCAASGSILSRYAMGWYRQAPGKERELVAAINWSGSSTYYADSVKGRFTISRDNAKNTVYLQMNSLKPEDTAVYYCAKLYVTPRRLPYDYWGQGTQVPVSS | high polyreactivity |
| QVQLVESAGGLVQAGGSLSLSCAASGSMFNKYAMGWYRQAPGKERELVAAISVSGTRTYYADSVKGRFTISRDNAKNTVYLQMNSLKPEDTAVYYCATKFFRTAYEYWGQGTQVTVSS | high polyreactivity |
| QVQLVESAGGLVQAGGSLSLSCDASGNTFLGYAMGWYRQAPGKERELVAAISKRGGSTYYADSVKGRFTISRDNAKNTVYLQMNSLQPEDTAVYYCNAVPPRDNGSWGQGTQVTVSS | high polyreactivity |
| QVQLVESAGGLVQAGGSVRLSCAASGRIFGSYAMGWYRQAAGKERELVAAINWRGGSTFYADSVKGRFTISRDNAKNTVYLQMNSLKPEDTAVYYSARRGYLQSGDYWGHGTQVTVSS | low polyreactivity |
| QVQLVESAGGLVQAGGTLRLSCDASGFIIYYYAMGWYRQAPGKERELVAAISRGGSTYYADSVKGRFTISRDNAKNTGYLQMISLKPEDTAVYYCASEDFPVYSYYYWGQGSQVTVSS | high polyreactivity |
| QVQLVESAGGLVQEGGSLRLSCAASVIFWANVMGWYRQAPGKEWELVDAITSGGSTNYADSVKGRFTISRDNAKNTVYLQMNSLKPEDTAVYYCIKPWYSYRYGGVGYGYWGQGTQVTVSS | low polyreactivity |
| QVQLVESAGRLVQAGGSLRLSCAASGSTYSSNAMGGYRQEPGKERELVAAITTSGGSTYYADSVKGRFTISRDNAKNTVYLQMNSLIPADTAVYYCAADLVHAYQWSIFLYGYWGLGTQVTVSS | low polyreactivity |
| QVQLVESARGIVQAGGSLRLSSAASGFIFYSSAMGGYRQAPGYERELVAGITSGGITSYADSVKGRFTISRDNAKNTVYLQMNSLKPEYTAVYYCAAVVVYQNYNYYYWGQGTQVTVSS | high polyreactivity |
